Source: IntAct's records for PubMed 15965486

target: vps35_mouse Vps35 (UniProt Q9EQH3)

effect of a mutation on the interaction | Substance
decreasing interaction strength | Vacuolar protein sorting-associated protein 29 (Mus musculus) (from UniProt Q9QZ88-1) N39D
disrupting interaction strength | Vacuolar protein sorting-associated protein 29 (Mus musculus) (from UniProt Q9QZ88-1) I91S
decreasing interaction strength | Vacuolar protein sorting-associated protein 29 (Mus musculus) (from UniProt Q9QZ88-1) V90D
